This data set in a line: amyloid nucleation score (Sup35N fusion, yeast selection) (log enrichment); library NNK2; higher = more nucleation; inactive = no reads after selection. In a few lines:
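Plasmid inserts were Illumina-sequenced at input and output from psi-negative yeast expressing Sup35N fused to peptides of 20 random codons. The yeast were induced with 100 μM copper sulfate for 24 hours and grown 7 days at 30°C on medium lacking adenine and uracil, and sequences with under 100 input reads were excluded. Nucleation score is the DiMSum log enrichment of output over input reads, centred on the mode score of non-aggregating sequences.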

± gives the uncertainty stated by the source.

Turning to YNCLACARVKWKSVCGRMSC, the amyloid nucleation score amounted to 0.388 ± 0.32. With SPVVADQPWCSI, the amyloid nucleation score was determined as 0.321 ± 0.64. Turning to LAVKRMFSNFIFKAGTRNIW, the amyloid nucleation score entry was “inactive”. The value for GHNTYGYQRMRGCDV was 1.3 ± 0.38; that for LYLRRWSPGLVMIQYPIILW was 0.545 ± 0.42; that for IGKGRFNVYCMN was -0.64 ± 0.79.

With RRSYFFLVTFTLDVRDMVCF, the amyloid nucleation score was found to be 1.77 ± 0.18. As to RSILEM, the amyloid nucleation score is -0.302 ± 0.61.

On to YRCYTSGFLFFHGSCLNCKS, for which the amyloid nucleation score worked out at 0.227 ± 1.1. Take MFAVLSLDRGYHKAR: the amyloid nucleation score is -0.205 ± 0.55.

As for DYWFLCAICLWVFTGMYLVE, the amyloid nucleation score was determined as 0.01 ± 0.28. With VWPQCYLSLVF, the amyloid nucleation score is -0.082 ± 0.49. In turn, GSSVEMQLCELTSGGFDLSL had an amyloid nucleation score of 0.228 ± 0.32. LCCLMDFMITNLITFQRMTS: the amyloid nucleation score is 4.33 ± 0.11. Consider SWKFNRASPSEMMCASNAWN, for which the amyloid nucleation score was found to be 0.404 ± 0.8. With LLHLQYHLFMLCTVVNPHLL the figure was -0.628 ± 0.54. With SVFVCTDIFK, the amyloid nucleation score turned out to be 0.702 ± 0.52. MFHCSSKACLPVVDVGVVVC: the amyloid nucleation score was found to be 0.96 ± 0.29. Substance TVMCLNLLR registered an amyloid nucleation score of 6.454 ± 0.026.

As to SINWAFDYVSVLVGFD, the amyloid nucleation score entry was “inactive”. QFLAIFCSIT returned an amyloid nucleation score of 7.684 ± 0.043.

On to KGCVMSY, for which the amyloid nucleation score is -0.578 ± 1.1. RALLRFMLWFCEIPD displayed an amyloid nucleation score of 0.94 ± 0.74. In the case of ASGVFSLAEYNFFGISKKSF, the amyloid nucleation score result is “inactive”.

In the case of IRSNLTKKHLKIL, the amyloid nucleation score is -0.994 ± 0.63. In turn, GVRRRRIRRWLNVSGRYMCE registered an amyloid nucleation score of 2.38 ± 0.23. DVLWTLQLLFDPVGLCLAMK gave an amyloid nucleation score of 0.391 ± 0.41. As for GFVMSYGRGLLS, the amyloid nucleation score was determined as 0.29 ± 0.42.

CQAVRRILCYWTAYDIERAV registered an amyloid nucleation score of 1.16 ± 0.22.

On to IFKINVVVSSNTAQ, for which the amyloid nucleation score was determined as 2.4 ± 0.21. The value for VEVSECVHVIMYFRISYNKL was 3.4 ± 0.15; that for FEGLWQTFTMSLQGNLKYIF was -0.4 ± 0.74. With VTTKKHPIYTVTRRDRKPGD the figure was 0.524 ± 0.32; with MFHLRSNVMPTGLVRTPMLL, 1.54 ± 0.44; with FHGAYIGASSVNDPSVSD, 5.322 ± 0.04. SICGEVYWWNLG: the amyloid nucleation score was -0.978 ± 0.28.

NIRLRFCFRQMEWHNRFRDC: the amyloid nucleation score was 3.93 ± 0.069.

For GWVLI, the amyloid nucleation score was -0.994 ± 1.1. The value for LYLEMMCAIVWQQSYRHNRT was 0.727 ± 0.13; that for YTNTKKVLLVSVNVPRFLPV was 1.99 ± 0.17; that for YYSVMWYLMERAIN was -0.975 ± 0.35. With MVDKNNAKINHSR the entry was “inactive”; with LNQSDLLADFLVLI, 0.474 ± 0.31. As for VWFFGSYHVCWDCTF, the amyloid nucleation score is 0.378 ± 0.74. For the substance VYRSRAVHATSLGSERFNTD, the amyloid nucleation score came to 5.17 ± 0.1. The substance LTGLVSLPRCWTIWVPWREG had an amyloid nucleation score of 1.43 ± 0.25. With NDWCRGENITALWDGYGSGL the figure was 0.597 ± 0.46. For the substance NFHGDAYLESVRWIHIRNKR, the amyloid nucleation score was -0.735 ± 0.48.

The substance DSASNVW registered an amyloid nucleation score of 0.553 ± 0.37. The value for WSLSYYISVDEDYGSRGVTM was -1.6 ± 1. Turning to ETLPLNIILYACGEPHWFLL, the amyloid nucleation score was -0.407 ± 0.29. On to TVLLWD, for which the amyloid nucleation score entry was “inactive”. With CMGFLYTNTYCGGILIELFI, the amyloid nucleation score entry is “inactive”.

In turn, YSNSDTAMSLGARLAYGVL had an amyloid nucleation score of 5.379 ± 0.05. Consider KATPFAGTLRVYSTVTYCAI, for which the amyloid nucleation score worked out at 0.148 ± 1. With GMLMIVGARSRDVPYYGRCD the figure was 0.004 ± 1.1; with GCVLAQLSSVGSGVLML, 3.14 ± 0.16; with NVLSWKHMRAKGVNWFGGWV, -0.066 ± 0.27.

In the case of LGRLIWTRVSYCMSQINRVR, the amyloid nucleation score was 2.23 ± 0.061. ICKFFSIGVH showed an amyloid nucleation score of 1.14 ± 0.68. NQALTTSPHSYIRFSCTCMF returned an amyloid nucleation score of 3.89 ± 0.14. As for NFYKEFGGMIAYLDKILREE, the amyloid nucleation score was -1.13 ± 0.55. With RSFSSPRIILYVKLLVSLYG the figure was -0.783 ± 0.25; with QDRVFYIAYVNNVS, 5.606 ± 0.04. NSGHYFKDKSWCQMRS: the amyloid nucleation score turned out to be 0.615 ± 0.66. As for LSFFDLIMGVRGMLQSVCGL, the amyloid nucleation score is -0.131 ± 0.56.

As to SHYTMALSRDIGYGDITKSD, the amyloid nucleation score was -0.675 ± 1.1. TEIKSCKDNTHVHMHSLIRA yielded an amyloid nucleation score of 0.384 ± 0.43.

As for GCLTNTSSGMHWS, the amyloid nucleation score was -0.208 ± 0.24. With CWFMYPSMIDWWSMTSRECF the figure was -0.129 ± 0.18; with EVRSALYAYEGYLRVFRSFR, 0.819 ± 0.46.

NNWYQTGSVAEASIEPSSMQ gave an amyloid nucleation score of 1.6 ± 0.41. The value for RLYKRLR was -1.19 ± 1.1; that for STIQGIKNRSYRHSSANRVN was 0.333 ± 0.61; that for RRGQEGYRVEWA was 1.22 ± 0.59.

The substance MHHQSSAFNQGHASPYLSWK showed an amyloid nucleation score of 0.741 ± 0.39. For CEVSGYARWLGQHYWSAVRA, the amyloid nucleation score is 1.69 ± 0.32.

In turn, SVNILDTWDKVAPTKRPLES showed an amyloid nucleation score of 0.266 ± 0.49. The value for QLHSLKKKRKY was -0.625 ± 0.28. With AAFLNWVVCEIENEEGMSWL the entry was “inactive”.

Consider LCYWPYDSVYLLTRFTVNGF, for which the amyloid nucleation score was -0.349 ± 0.25. With LTPLSNIGCTCDYLMDCSYL the entry was “inactive”; with SLMKKTAGLFNVYVPSIGSS, 0.378 ± 0.37. VSIPLIISTCASLSVCSMTW returned an amyloid nucleation score of 8.067 ± 0.034.

YNSNNRAILSLLHDQRNLYG registered an amyloid nucleation score of 0.643 ± 0.16.

With TSSSYTSTFDRGLMNLRTCL, the amyloid nucleation score is -0.039 ± 0.25. Consider KYWFDGYLGYF, for which the amyloid nucleation score was -1.14 ± 0.29.

For the substance VVRKGCL, the amyloid nucleation score is -0.86 ± 1.1. As for KDWRGMEDFMSVFFRSGLGS, the amyloid nucleation score result is “inactive”.

As to RGSRVLSFILLRISNWIFQD, the amyloid nucleation score was -0.239 ± 0.76. With MSPNLIMMHHCH the figure was 0.094 ± 0.41; with SYNRSKCNSTRLMLKSKTAH, 1.51 ± 0.47; with SLWLSEVVCMDTVHQEIIMA, -0.163 ± 0.42. IFWAYAICCIYGLRGCRGEY came in with an amyloid nucleation score of 6.64 ± 0.084. MQYCLGFDLNLRNYICHPGR had an amyloid nucleation score of 7.303 ± 0.063. Regarding SMGLSC, the amyloid nucleation score entry was “inactive”. Regarding EYRLFCCWE, the amyloid nucleation score turned out to be 6.04 ± 0.072.

Substance VLDVVLYPGKF showed an amyloid nucleation score of 0.176 ± 0.26. LDGFLLSISLRINKRLSSGR yielded an amyloid nucleation score of 4.79 ± 0.061.

On to SSSLLRSHRVGYVNLVVRED, for which the amyloid nucleation score is -0.524 ± 0.55. The value for EISAMVAL was -1.06 ± 0.54; that for TYVLWSFTKYRPP was 1.02 ± 0.66; that for MLVNRFGGVA was -0.402 ± 0.38. For the substance EQIGQ, the amyloid nucleation score came out at 2.92 ± 0.089. SDCRWNCVSMEWIDPTHEDK: the amyloid nucleation score was -0.518 ± 0.2. The value for VSLYRKGSASKEGGLERATD was 0.55 ± 0.3; that for PHLTMFKARYIDTFAPRS was -0.672 ± 0.5; that for VLTLPKRNHVHL was 0.874 ± 0.35. Consider CCVDDRWVDARPWGSRNSRA, for which the amyloid nucleation score stood at 0.491 ± 0.57.

On to AWLWKMFNGTCNRWYINRPL, for which the amyloid nucleation score is -0.81 ± 0.76. With ACDVDAMFTKMYSIFFR, the amyloid nucleation score amounted to 0.479 ± 0.62. Turning to IPRGLFCLLYNVVKEYFVLR, the amyloid nucleation score came out at 0.198 ± 0.4.

Substance GTYFNLYAGVLSVRQWPPHI came in with an amyloid nucleation score of 4.42 ± 0.061. For the substance QLKSFR, the amyloid nucleation score result was “inactive”. Turning to LLIFNGLYGWAIGDGLPSSW, the amyloid nucleation score turned out to be 5.09 ± 0.051. With KVSWEDSFLFLCQCRRDCTL the figure was 8.707 ± 0.039; with QFDAWAYMDRTPHGDSYRAA, 0.237 ± 0.65. With WKTWSPKYWGSFVR the figure was -0.283 ± 0.46; with IWIKNTSLLLLCRLSHCHNI, “inactive”. On to FLIFVFLLYGPEMSDYCWTF, for which the amyloid nucleation score is 0.14 ± 1.

With KLLFCERGKSGSNQSSLTKT, the amyloid nucleation score was -0.523 ± 0.54. MYLAGHLDCGGY registered an amyloid nucleation score of 3.27 ± 0.055. With CGLLGVPFTKLTMLISRRMT the figure was 0.286 ± 0.61; with CHHQRYGSGFRLRNSLTVGS, 0.015 ± 0.41.

As to TGFCGRHYDLSSSTEDLYLL, the amyloid nucleation score came out at 0.606 ± 0.8. On to WRYSRKMDRPFYRAMCYVNI, for which the amyloid nucleation score worked out at 1.68 ± 0.1. The value for DSVGMVRTLVWDWGQATNGR was 0.953 ± 0.51.

Take RFVVWRHFSWIATMLSTIPV: the amyloid nucleation score amounted to 1.13 ± 0.35.

In the case of NMMISCVNTLADDVFRGGFV, the amyloid nucleation score is -1.33 ± 0.31. The value for NKFDRFMFPRVR was -0.98 ± 0.35; that for SYSSPHRINGCVIRP was -0.084 ± 0.54. With PYQMGSYKLACVQKRPWV the figure was 0.929 ± 0.58; with LSKYLMQYNTCRLESKS, -0.336 ± 0.16. Consider FVLSDQK, for which the amyloid nucleation score came to 0.347 ± 0.21. With LTCSVNTGYYGYIRRL, the amyloid nucleation score is -0.607 ± 0.25. The substance HLTVFVDLSVRLRQMYRRYS showed an amyloid nucleation score of 5.56 ± 0.069.

For the substance TNIQN, the amyloid nucleation score is -0.69 ± 0.61.

VIDGNKDGSMTFPVQGDALR displayed an amyloid nucleation score of 1.2 ± 0.48. With SNEHKYFQNIATNVLV, the amyloid nucleation score was -0.371 ± 0.64.
